± gives the uncertainty stated by the source.

The nature of this series: amyloid nucleation score (Sup35N fusion, yeast selection) (log enrichment); library NNK1; higher = more nucleation; inactive = no reads after selection. The procedure, abridged:
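Nucleation score is defined as the DiMSum log enrichment of output over input reads, with centring on the mode score of non-aggregating sequences. A minimum of 100 input reads was required for each sequence. Reads came from Illumina sequencing of plasmid inserts from psi-negative yeast expressing Sup35N fused to peptides of 20 random codons, induced with 100 μM copper sulfate for 24 hours and grown 7 days at 30°C on medium lacking adenine and uracil.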
SVPVSTTDWNSGFLWAGGCS gave an amyloid nucleation score of 0.513 ± 0.52. Under SVQDFPDTSNNLASYVPSSW stands -0.292 ± 0.74; under SVSVNHSLPTLESDL, -0.682 ± 0.62; under SVTVM, 1.74 ± 0.49. Consider SVVLQTHFAFSSFELKSKVA, for which the amyloid nucleation score is -0.54 ± 0.39. Under SVVTFT stands 0.575 ± 0.49; under SVWDERIPGGYSPIRVCPSW, -0.337 ± 0.74.

For SVWMCM, the amyloid nucleation score came to 2.64 ± 0.1. Next, SVWVVCFVSRNVLVMFNSNF: “inactive”; SWAWIACIGAMNPEN: -0.478 ± 1.4; SWDEAVSWHSRSVVSAGGVA: -0.813 ± 1.3. Next, SWDVAYVSMF: 0.124 ± 0.6; SWGMVFLNSRVPWRVMFNSC: 0.154 ± 0.48.

For SWKIFIRIMTDYSIQFAYSY, the amyloid nucleation score is 1.88 ± 0.098. Next, SWLDLNLIDHQAFAFSSFGQ: 0.183 ± 0.3; SWMSRKEENSGLILVAVYLV: 1.29 ± 0.76.

Turning to SWQSVSSAISV, the amyloid nucleation score was -0.234 ± 0.85. Turning to SWTTARLNRSRSIFKNLRQE, the amyloid nucleation score amounted to 0.028 ± 0.46. Under SWWVGTCFSGQWTVLGFP stands 0.961 ± 0.69. Next, SWYIKVFRFGLFHWSSGVGW: “inactive”. SYCTGLFWEKRVVIMLVSQV registered an amyloid nucleation score of -0.103 ± 0.53. Regarding SYGSKFWEFLHFGESV, the amyloid nucleation score is -0.179 ± 0.66. Next, SYHNLCGSESGQVVNNQDRM: -0.852 ± 0.51; SYHPLHVCCSSVFRELVIRD: 2.11 ± 0.43; SYHVMNKDYMVYFKNTYKDK: 4.68 ± 0.078.

With SYICLHYFCIQ, the amyloid nucleation score came to 5.745 ± 0.055. Next, SYIGDCEIFIKEPVGANNLE: -0.909 ± 2.7.

In the case of SYISLSLISFSVGGSSHFSM, the amyloid nucleation score amounted to 6.96 ± 0.077. SYMGSNSSYYCMRGWGRTWY showed an amyloid nucleation score of 2.14 ± 0.095. Next, SYMKQINTGKVFRAHYVLLA: 0.117 ± 1.1.

In turn, SYPKGGLPCGWIRTPPWRFH showed an amyloid nucleation score of 0.42 ± 0.59. Next, SYPSGSP: -0.061 ± 0.96; SYPTKLPWFGGGYNRGSMSS: -0.481 ± 0.58.

SYRSVG gave an amyloid nucleation score of 0.25 ± 0.59. Next, SYVPANY: -1.82 ± 1.1; SYVVYCHSAMRRKGSMGRYL: 0.468 ± 0.37. Under SYYMYLN stands -0.19 ± 0.26. Under TADFLCSINEAFSVFTLLRE stands 1.03 ± 0.93; under TAPKIFLGGIL, “inactive”. For the substance TAVGSRGFPRNHLRPKNTSG, the amyloid nucleation score is -0.309 ± 0.53. Under TAVVENCLPIWVVYSSKMY stands 0.018 ± 0.6. Next, TCDFAAWICFYISLWVRVKI: -0.382 ± 0.61; TCFMLKWIKQRLIDGSVKGR: 0.512 ± 1.2; TCILDHGPSMGRHSLGALIL: -0.969 ± 1.1. Under TCMTRTLYIL stands -0.092 ± 0.37. Substance TCMWMILLFINR came in with an amyloid nucleation score of 0.608 ± 0.27.

Turning to TCVIFLVLCQALSFPVLALC, the amyloid nucleation score worked out at 0.095 ± 0.79. Under TDEGLVCHK stands 0.522 ± 0.75. For the substance TDEVDDIQF, the amyloid nucleation score was determined as 0.552 ± 0.59. TDGQWMSYSFSAFASYVVLG came in with an amyloid nucleation score of -0.179 ± 0.58.

TDIFCP showed an amyloid nucleation score of -1.47 ± 1.7. Next, TDIHTVHRSNLVKVLRKGMN: -0.411 ± 0.53; TDLFYMMCSRRQTYVCNLVR: 0.456 ± 0.43; TDNMWCSNVIFLECTN: 4.07 ± 0.12. Next, TDYSFKLFTFFSSESNGFPI: -1.01 ± 1; TEELYTGVTFL: -1.93 ± 1.5. Under TEGFNTANA stands -0.34 ± 1.1; under TELGVSPIAKRRNSVLDHAL, -0.449 ± 1.1. For the substance TELSEHVRSRLWSKG, the amyloid nucleation score stood at 0.355 ± 0.42.

Substance TENVLLTYVFYAKSRLGSVV registered an amyloid nucleation score of 0.921 ± 0.56. Under TETLADVLALERLPGCMKFI stands 0.259 ± 0.68. Under TFFLVLVSPD stands 0.059 ± 1.4; under TFLNFWPQFCMEFY, 5.98 ± 0.06. In turn, TFNVVNPMVTYN registered an amyloid nucleation score of -0.776 ± 0.3.

TFQGARYYYWPAVF showed an amyloid nucleation score of 1.33 ± 0.63.

Substance TFSHWPLWNVYRSFAFTCRP displayed an amyloid nucleation score of 0.871 ± 0.47.

For the substance TFSQWWVRSCFGTRMNWCLV, the amyloid nucleation score worked out at 0.174 ± 1.2. Under TFTFVFW stands 3.46 ± 0.13. Next, TFVVELS: -1.64 ± 2.4. Next, TFYRLSISVVSLNMVIHPGP: 1.5 ± 0.2.

TGASLLVAHRTYSEIILRCD yielded an amyloid nucleation score of 0.606 ± 0.49. In the case of TGATATYKFFIFFIL, the amyloid nucleation score was found to be 1.28 ± 0.22.

TGCGERWGQSMVIGVSL yielded an amyloid nucleation score of -0.102 ± 0.62. Under TGEPKRS stands 1.58 ± 0.49; under TGKNSC, 3.44 ± 0.099. Under TGNYDYVSFNQRKLHGCFNQ stands -0.652 ± 0.93; under TGRCR, “inactive”; under TGRYISDYCVIKAYVYSICD, -0.135 ± 0.39.

TGTSSPMRPLH showed an amyloid nucleation score of 0.532 ± 0.69. Next, TGVCTGECWYRGLVQSCSGA: -0.239 ± 0.53.

In the case of THCVSLLGIYFFSSWVMIVR, the amyloid nucleation score was -0.266 ± 0.4. THFRCH: the amyloid nucleation score worked out at 0.762 ± 0.8. Take THNSLFSHVSWYRCVSSGVF: the amyloid nucleation score worked out at 0.304 ± 1.1. Next, TIECFYGVVSFRHNQYYGAQ: 2.16 ± 0.17. Next, TIFLQALGYSRWLLEISMDR: -1.06 ± 0.96. Next, TIFVPGALVDFAAGGTHQLI: -0.088 ± 1.3; TIFVYSKTNL: 2.64 ± 0.18.

On to TITIVVRYVETRCGNIRDVE, for which the amyloid nucleation score turned out to be 0.794 ± 0.45. Under TIVFMRAHIFW stands 0.788 ± 0.25; under TIVRGSNYRPPVWPSDY, -0.535 ± 1.1. Under TIWDSRTSFVYS stands 0.254 ± 0.56; under TIYISVSNRSVDSKDMGYGS, “inactive”; under TKDRFYEC, 0.419 ± 0.58. Under TKYCFPFNFQGSLHQWRRRF stands 0.972 ± 0.52. TLHTKSGLNIMARYPMAERG came in with an amyloid nucleation score of 1.31 ± 0.8.

Substance TLITWTLVSVGIWTMQS came in with an amyloid nucleation score of 1.56 ± 0.53. Under TLKHLNATISHT stands 1.1 ± 0.71; under TLLYPYMVPLRRKSLWGAVR, 1.36 ± 0.35; under TLNSPECDPNLSLML, -0.555 ± 1.1.

TLRLSFCRYMAFWHCNRSMA had an amyloid nucleation score of -1.14 ± 1.1. Next, TLRMGESCFKWWYQIFIQLF: 0.275 ± 0.93; TLRYKNT: 0.371 ± 0.76; TLSPTAGPAVVALILYGSLT: 1.17 ± 0.65. Next, TLSRFPLAALNLVRVR: 0.3 ± 0.86; TLSTVTG: 0.357 ± 0.37; TLTRYC: -0.086 ± 1.2. Next, TLTSRVENKFRMVIL: 3.46 ± 0.088; TLVIVTFFMIFIGMVSVFYR: 1.27 ± 0.25; TMDDYPLDLHCWAGS: 0.767 ± 1. In turn, TMFHLWNFGCVALVR yielded an amyloid nucleation score of -0.104 ± 0.34. Under TMQFFHERGYLLKSRYAGAW stands -0.273 ± 0.98; under TMSASLNYLTLVMN, 0.129 ± 0.59; under TMTFPKVLWPCGLVRNFCST, -0.294 ± 0.67. Next, TMTVSFPRLEKCTSK: 0.169 ± 0.35. Regarding TMYPLIRLYGSMSRNETGEW, the amyloid nucleation score stood at 0.437 ± 0.33.

TMYSVYRFVGCKKSFMVRKG displayed an amyloid nucleation score of 0.454 ± 0.4. Under TNFFGSPCAMCNFSLDICSK stands 8.038 ± 0.057.

Substance TNFYAVFLLLGGSGF showed an amyloid nucleation score of 7.171 ± 0.051. Next, TNILLLHFSDHEFGLEFRYL: 1.68 ± 0.17; TNPLDPLLCNVYQVLDMPCM: 0.497 ± 0.58.

Substance TNRPAPLPSYRTILCK yielded an amyloid nucleation score of 0.7 ± 0.97. In turn, TNSCNLELAVICMSSYWG gave an amyloid nucleation score of 4.71 ± 0.069. Next, TNVKQQACRLRSS: 4.83 ± 0.063; TPKLIAV: -2.05 ± 1.9.

TPRYVLLVC gave an amyloid nucleation score of -0.983 ± 2.4. Under TQMMDALFLSAL stands 0.935 ± 0.79; under TQMNR, -0.89 ± 0.51; under TRALSFN, -0.873 ± 1.6.

In turn, TRHGLGRFVHSRTVVFIGIW gave an amyloid nucleation score of -0.642 ± 0.82. Next, TRNFKQK: -1.78 ± 1.8. Next, TRQRKDGYADRMQYNSPLRR: 0.342 ± 0.6; TRRYWV: -0.679 ± 0.32. Next, TRTNLVAPCIMEVLSNVHRY: “inactive”.

Substance TRTPAWGWFPQST came in with an amyloid nucleation score of -0.105 ± 0.81. Under TRTRLEHNSVRKFWEL stands “inactive”; under TRTTKMAH, 1.24 ± 0.45. Under TRVFSCDACRKN stands “inactive”; under TSASVGLVMWTTWMRNQG, 3.75 ± 0.087. Under TSGLENVSIVNGLPGLDSLV stands 0.11 ± 0.99; under TSGLSGSESKESTDKCCIEC, 0.713 ± 0.92; under TSGSRVRRRWGMLVCRNRSR, -1.25 ± 2.4. TSGWRYGYSSYHYRTLNGFV gave an amyloid nucleation score of -0.35 ± 0.47.

For the substance TSHPFLLQFMDDPFELSLAQ, the amyloid nucleation score is -0.714 ± 0.48.

The values are drawn from the supplement of paper PMC12042874.
